Series [1] addresses T1, β-xylosidase BxTW1 (rBxTW1) (Talaromyces amestolkiae, UniProt A0A0H3W535).
T1 construct: mature BxTW1 without its signal peptide, expressed in Pichia pastoris GS115
T1 sequence (A0A0H3W535 22-797): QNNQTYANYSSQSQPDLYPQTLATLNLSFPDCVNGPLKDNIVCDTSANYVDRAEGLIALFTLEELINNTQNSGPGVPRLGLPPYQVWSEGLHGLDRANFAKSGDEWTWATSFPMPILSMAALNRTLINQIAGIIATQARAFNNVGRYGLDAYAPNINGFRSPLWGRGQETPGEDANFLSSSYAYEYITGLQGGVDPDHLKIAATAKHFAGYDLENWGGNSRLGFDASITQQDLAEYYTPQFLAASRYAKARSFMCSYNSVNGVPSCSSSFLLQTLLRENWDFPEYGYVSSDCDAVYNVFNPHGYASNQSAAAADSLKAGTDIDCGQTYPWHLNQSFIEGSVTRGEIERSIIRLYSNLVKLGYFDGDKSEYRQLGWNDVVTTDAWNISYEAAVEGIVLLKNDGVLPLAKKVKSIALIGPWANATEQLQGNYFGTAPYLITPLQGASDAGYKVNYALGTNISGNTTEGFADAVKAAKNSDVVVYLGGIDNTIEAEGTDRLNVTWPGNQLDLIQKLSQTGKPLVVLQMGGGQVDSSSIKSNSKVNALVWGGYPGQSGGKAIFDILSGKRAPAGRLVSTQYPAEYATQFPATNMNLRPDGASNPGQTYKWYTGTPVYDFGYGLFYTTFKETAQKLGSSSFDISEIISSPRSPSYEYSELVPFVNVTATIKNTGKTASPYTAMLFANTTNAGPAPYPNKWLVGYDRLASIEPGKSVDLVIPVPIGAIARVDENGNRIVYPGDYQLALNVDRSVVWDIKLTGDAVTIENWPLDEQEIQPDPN
Kind of series: competitive product inhibition of pNPX hydrolysis by purified enzyme. The class given is biochemical.

Series [2] has as its target recombinant β-xylosidase BxTW1 from Talaromyces amestolkiae (Talaromyces amestolkiae). In words: SEC; Superose 12 HR 10/30 column, molecular mass in native conditions, performed as described previously [20]. A general note: In gel filtration, larger molecules generally elute earlier.
Substrate in series [3]: O=[N+]([O-])c1ccc(O[C@@H]2OC[C@@H](O)[C@H](O)[C@H]2O)cc1
In words: Michaelis-Menten kinetics of purified enzyme (Km). The format is biochemical, Talaromyces amestolkiae.

Substrate in series [4]: O=[N+]([O-])c1ccc(O[C@@H]2OC[C@H](O)[C@H](O)[C@H]2O)cc1
Kind of series: Michaelis-Menten kinetics of purified enzyme (Km). The format is biochemical, Talaromyces amestolkiae.

Substrate in series [5]: O=[N+]([O-])c1ccc(O[C@@H]2O[C@@H](CO)[C@H](O)[C@H]2O)cc1
In words: Michaelis-Menten kinetics of purified enzyme (Km). The class given is biochemical, Talaromyces amestolkiae.

Substrate in series [6]: OC1OC[C@@H](O[C@@H]2OC[C@@H](O)[C@H](O)[C@H]2O)[C@H](O)[C@H]1O
In words: Michaelis-Menten kinetics of purified enzyme (Km). The class given is biochemical, Talaromyces amestolkiae.

Substrate in series [7]: OC1OC[C@@H](O[C@@H]2OC[C@@H](O[C@@H]3OC[C@@H](O)[C@H](O)[C@H]3O)[C@H](O)[C@H]2O)[C@H](O)[C@H]1O
Kind of series: Michaelis-Menten kinetics of purified enzyme (Km). The format is biochemical, Talaromyces amestolkiae.

Substrate in series [8]: OC1OC[C@@H](O[C@@H]2OC[C@@H](O[C@@H]3OC[C@@H](O[C@@H]4OC[C@@H](O)[C@H](O)[C@H]4O)[C@H](O)[C@H]3O)[C@H](O)[C@H]2O)[C@H](O)[C@H]1O
Kind of series: Michaelis-Menten kinetics of purified enzyme (Km). The class given is biochemical, Talaromyces amestolkiae.

Substrate in series [9]: OC1OC[C@@H](O[C@@H]2OC[C@@H](O[C@@H]3OC[C@@H](O[C@@H]4OC[C@@H](O[C@@H]5OC[C@@H](O)[C@H](O)[C@H]5O)[C@H](O)[C@H]4O)[C@H](O)[C@H]3O)[C@H](O)[C@H]2O)[C@H](O)[C@H]1O
Kind of series: Michaelis-Menten kinetics of purified enzyme (Km). The format is biochemical, Talaromyces amestolkiae.

Substrate in series [10]: OC1OC[C@@H](O[C@@H]2OC[C@@H](O[C@@H]3OC[C@@H](O[C@@H]4OC[C@@H](O[C@@H]5OC[C@@H](O[C@@H]6OC[C@@H](O)[C@H](O)[C@H]6O)[C@H](O)[C@H]5O)[C@H](O)[C@H]4O)[C@H](O)[C@H]3O)[C@H](O)[C@H]2O)[C@H](O)[C@H]1O
Kind of series: Michaelis-Menten kinetics of purified enzyme (Km). The class given is biochemical, Talaromyces amestolkiae.

For orientation: Ki means the dissociation constant of the complex between target and ligand, obtained from inhibition or displacement. Turning to `OC1OC[C@@H](O)[C@H](O)[C@H]1O` (stereo partly shown) [xylose], the Ki in series [1] stood at 1700 ± 300 µM.

As a reminder, the stoichiometry N is a count of units in the complex or per binding partner. Regarding “recombinant β-xylosidase BxTW1 from Talaromyces amestolkiae (enzyme)”, in series [2], the stoichiometry N was found to be 2.

B1: β-xylosidase BxTW1 (rBxTW1) (Talaromyces amestolkiae) (protein)
chain: QNNQTYANYSSQSQPDLYPQTLATLNLSFPDCVNGPLKDNIVCDTSANYVDRAEGLIALFTLEELINNTQNSGPGVPRLGLPPYQVWSEGLHGLDRANFAKSGDEWTWATSFPMPILSMAALNRTLINQIAGIIATQARAFNNVGRYGLDAYAPNINGFRSPLWGRGQETPGEDANFLSSSYAYEYITGLQGGVDPDHLKIAATAKHFAGYDLENWGGNSRLGFDASITQQDLAEYYTPQFLAASRYAKARSFMCSYNSVNGVPSCSSSFLLQTLLRENWDFPEYGYVSSDCDAVYNVFNPHGYASNQSAAAADSLKAGTDIDCGQTYPWHLNQSFIEGSVTRGEIERSIIRLYSNLVKLGYFDGDKSEYRQLGWNDVVTTDAWNISYEAAVEGIVLLKNDGVLPLAKKVKSIALIGPWANATEQLQGNYFGTAPYLITPLQGASDAGYKVNYALGTNISGNTTEGFADAVKAAKNSDVVVYLGGIDNTIEAEGTDRLNVTWPGNQLDLIQKLSQTGKPLVVLQMGGGQVDSSSIKSNSKVNALVWGGYPGQSGGKAIFDILSGKRAPAGRLVSTQYPAEYATQFPATNMNLRPDGASNPGQTYKWYTGTPVYDFGYGLFYTTFKETAQKLGSSSFDISEIISSPRSPSYEYSELVPFVNVTATIKNTGKTASPYTAMLFANTTNAGPAPYPNKWLVGYDRLASIEPGKSVDLVIPVPIGAIARVDENGNRIVYPGDYQLALNVDRSVVWDIKLTGDAVTIENWPLDEQEIQPDPN
notes: mature BxTW1 without its signal peptide, expressed in Pichia pastoris GS115
By Km is commonly meant the substrate concentration at which the rate is half of its maximum. As a reminder, the Vmax is the top rate of the reaction or transport when substrate is in excess. Usually kcat stands for the number of substrate molecules converted per active site and unit of time at saturation. By kcat/Km is commonly meant the turnover number divided by the Michaelis constant. B1: the Km in series [3] was 200 ± 10 µM; in series [4], 1600 ± 100 µM; in [5], 4300 ± 300 µM; in [6], 510 ± 30 µM; in series [7], 190 ± 10 µM; in [8], 200 ± 10 µM. In addition, the Km came out at 220 ± 10 µM in [9] and 210 ± 20 µM in series [10]. Further, the Vmax was 20.8 µmol/min/mg in series [3]; 8.3 µmol/min/mg in [4]; 14.9 µmol/min/mg in [5]; 26.4 µmol/min/mg in series [6]; 9 µmol/min/mg in [7]; 6.34 µmol/min/mg in series [8]. The Vmax in series [9] worked out at 4.48 µmol/min/mg; in series [10] it was 4.27 µmol/min/mg. Also, the kcat was 69.3 s⁻¹ in series [3]; 28 s⁻¹ in [4]; 49.8 s⁻¹ in [5]; 87.9 s⁻¹ in [6]; 30 s⁻¹ in [7]; 21.1 s⁻¹ in series [8]. In addition, the kcat was 14.9 s⁻¹ in series [9] and 14.2 s⁻¹ in series [10]. Besides, the kcat/Km in [3] came to 336000 M⁻¹ s⁻¹; in series [4] it was 17000 M⁻¹ s⁻¹; in series [5], 12000 M⁻¹ s⁻¹; in series [6] it was 170000 M⁻¹ s⁻¹; in series [7], 160000 M⁻¹ s⁻¹; in series [8] it was 100000 M⁻¹ s⁻¹. Moreover, the catalytic efficiency (kcat/Km) in [9] is 68000 M⁻¹ s⁻¹; in series [10], 69000 M⁻¹ s⁻¹.
